# Experimental data reported in IntAct's records for PubMed 17803994.
# B1: Neutrophil cytosol factor 4 (Homo sapiens), Q15080 (parent)
# chain: MAVAQQLRAESDFEQLPDDVAISANIADIEEKRGFTSHFVFVIEVKTKGGSKYLIYRRYRQFHALQSKLEERFGPDSKSSALACTLPTLPAKVYVGVKQEIAEMRIPALNAYMKSLLSLPVWVLMDEDVRIFFYQSPYDSEQVPQALRRLRPRTRKVKSVSPQGNSVDRMAAPRAEALFDFTGNSKLELNFKAGDVIFLLSRINKDWLEGTVRGATGIFPLSFVKILKDFPEEDDPTNWLRCYYYEDTISTIKDIAVEEDLSSTPLLKDLLELTRREFQREDIALNYRDAEGDLVRLLSDEDVALMVRQARGLPSQKRLFPWKLHITQKDNYRVYNTMP
# partner: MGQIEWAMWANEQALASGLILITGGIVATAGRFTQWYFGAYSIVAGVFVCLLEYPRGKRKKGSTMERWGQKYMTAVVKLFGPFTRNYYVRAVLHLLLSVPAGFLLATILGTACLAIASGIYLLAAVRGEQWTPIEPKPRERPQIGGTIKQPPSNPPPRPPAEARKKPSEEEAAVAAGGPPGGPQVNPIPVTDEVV
# B2: Cytochrome b-245 light chain (Homo sapiens), P13498 (parent)
# chain: B1 partner
# B3: Cytochrome b-245 light chain (Homo sapiens), P13498 (parent)
# chain: B1 partner
# partner: B1 chain
# Variants of: B1
# Details: with cy24a_human CYBA
row,effect of a mutation on the interaction,Variant
1,decreasing interaction,W207R

# Variants of: B2
# Details: with ncf1_human NCF1, P14598
# Sequence of ncf1_human NCF1, P14598 (P14598 whole entry): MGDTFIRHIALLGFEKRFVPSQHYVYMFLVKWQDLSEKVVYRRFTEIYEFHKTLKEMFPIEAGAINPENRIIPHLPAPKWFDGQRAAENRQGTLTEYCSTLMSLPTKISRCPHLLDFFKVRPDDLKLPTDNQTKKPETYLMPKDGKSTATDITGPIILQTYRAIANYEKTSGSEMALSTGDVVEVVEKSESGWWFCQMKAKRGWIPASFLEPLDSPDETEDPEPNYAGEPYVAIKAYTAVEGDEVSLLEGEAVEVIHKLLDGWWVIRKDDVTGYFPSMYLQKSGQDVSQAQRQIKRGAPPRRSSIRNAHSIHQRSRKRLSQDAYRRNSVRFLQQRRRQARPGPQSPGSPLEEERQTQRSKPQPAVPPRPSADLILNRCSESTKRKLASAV
row,effect of a mutation on the interaction,Variant
1,decreasing interaction,P156Q

# Variants of: B3
# Details: with ncf4_human NCF4, Q15080
row,effect of a mutation on the interaction,Variant
1,decreasing interaction,P156Q
